# Reference: patent US20250382344A1, “Soluble GLP1/GIP/NPY2 Receptor Triple Agonists” (Boehringer Ingelheim International GmH, priority 2024, published 2025)
# Numbering of substitutions follows the chain as printed. *1 amine or outer side, *2 acyl side, *3 side chain or, on linkers, in order; H or OH if unused. Where no end group is shown, it is not given here. Side-chain parts run from the residue outwards. [ ]: non-standard residue; d: D form. The star is where a group is joined. C20 diacid = O=C(O)CCCCCCCCCCCCCCCCCCC(=O)*; C18 diacid = O=C(O)CCCCCCCCCCCCCCCCC(=O)*; γGlu = O=C(O)[C@H](CCC(=O)[*:2])N[*:1]; εLys = N[C@@H](CCCCN[*:1])C(=O)[*:2]; Aib = CC(C)(N)C(=O)O
# T1: human neuropeptide Y2 receptor (human, UniProt P49146 1-381)
# T1 sequence (looked up): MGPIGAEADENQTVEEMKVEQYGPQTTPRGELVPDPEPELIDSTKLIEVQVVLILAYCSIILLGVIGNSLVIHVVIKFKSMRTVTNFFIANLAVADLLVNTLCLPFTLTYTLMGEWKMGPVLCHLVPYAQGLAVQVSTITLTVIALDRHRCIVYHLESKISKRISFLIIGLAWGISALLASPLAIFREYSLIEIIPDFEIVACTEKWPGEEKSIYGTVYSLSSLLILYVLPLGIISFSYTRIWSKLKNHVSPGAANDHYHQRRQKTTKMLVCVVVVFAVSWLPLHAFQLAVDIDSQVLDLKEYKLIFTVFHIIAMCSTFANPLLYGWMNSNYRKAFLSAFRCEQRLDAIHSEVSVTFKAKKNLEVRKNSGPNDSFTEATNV
# B1: Compound 42 (peptide)
# peptide: YXEGTFTSDYSIXLEQQAQXAFVRHLINKXTRQRY
# modifications: Aib at 2, 13, 20, 30; Lys29 epsilon-amino acylated with C18DA-gGlu-gGlu-gGlu-gGlu-gGlu; C-terminal amide
# B2: Compound 7 (peptide)
# peptide: B1 peptide with Q16K, X30L
# modifications: Aib at 2, 13, 20; Lys29 epsilon-amino acylated with C18DA-gGlu-gGlu-gGlu-gGlu-gGlu-OEG; C-terminal amide
# B3: Compound 85 (peptide)
# peptide: B1 peptide with T5A, Q16K
# modifications: Aib at 2, 13, 20, 30; Lys29 epsilon-amino acylated with C18DA-gGlu-gGlu-gGlu-gGlu-gGlu-gGlu-eLys; C-terminal amide
# B4: Compound 54 (peptide)
# peptide: B1 peptide with T5E, Q16K
# modifications: Aib at 2, 13, 20, 30; Lys29 epsilon-amino acylated with C18DA-gGlu-gGlu-gGlu-gGlu-gGlu-gGlu-eLys; C-terminal amide
# Target: human GLP-1 receptor (human, UniProt P43220 24-463)
# Test: cell-based or functional assay
"EC50, CreLuc reporter, 0.5% hP","EC50, CreLuc reporter, 100% hP",Binder
0.9 nM,14.5 nM,B1
–,7.9 nM,B2
10.4 nM,14.5 nM,B3
3.4 nM,14.4 nM,B4
–,1.8 nM,Y[Aib]EGTFTSDYSI[Aib]LEKQAQ[Aib]AFVRHLINK([γGlu-γGlu-γGlu-γGlu-C18 diacid])[Aib]TRQRY-NH2 [Compound 77]
0.2 nM,–,Y[Aib]EGTFTSDYSI[Aib]LDQQAQ[Aib]AFVRHLINK([εLys-γGlu-γGlu-γGlu-γGlu-γGlu-C18 diacid])[Aib]TRQRY-NH2 [Compound 70]
5.5 nM,33 nM,Y[Aib]EGTFTSDYSIALEKQAQ[Aib]AFVRHLINK([γGlu-γGlu-γGlu-γGlu-γGlu-γGlu-C20 diacid])[Aib]TRQRY-NH2 [Compound 29]
0.7 nM,2 nM,Y[Aib]EGTFTSDYSI[Aib]LEEEAQ[Aib]AFVRHLINK([γGlu-γGlu-γGlu-γGlu-C18 diacid])[Aib]TRQRY-NH2 [Compound 25]
3.3 nM,–,Y[Aib]EGTFTSDYSI[Aib]LEKQAQ[Aib]AFVRHLINK([γGlu-γGlu-εLys-γGlu-γGlu-γGlu-γGlu-C20 diacid])[Aib]TRQRY-NH2 [Compound 52]
–,16.7 nM,Y[Aib]EGTFTSDYSI[Aib]LEKQAQ[Aib]AFVRHLINK([εLys-γGlu-γGlu-γGlu-γGlu-γGlu-C20 diacid])[Aib]TRQRY-NH2 [Compound 59]
0.5 nM,–,Y[Aib]EGTFTSDYSI[Aib]LEEQAQ[Aib]AFVRHLINK([εLys-γGlu-γGlu-γGlu-γGlu-γGlu-C18 diacid])[Aib]TRQRY-NH2 [Compound 48]

# Target: T1, human neuropeptide Y2 receptor
# Test: cell-based or functional assay
"EC50, CreLuc reporter, 0.5% hP","EC50, CreLuc reporter, 100% hP",Binder
81.4 nM,704 nM,B1
12.4 nM,80.6 nM,B2
–,16.2 nM,B3
–,38.3 nM,B4
12.8 nM,119 nM,Y[Aib]EGTFTSDYSI[Aib]LDQQAQ[Aib]AFVRHLINK([εLys-γGlu-γGlu-γGlu-γGlu-γGlu-C18 diacid])[Aib]TRQRY-NH2 [Compound 70]
41.3 nM,180 nM,Y[Aib]EGTFTSDYSIALEKQAQ[Aib]AFVRHLINK([γGlu-γGlu-γGlu-γGlu-γGlu-γGlu-C20 diacid])[Aib]TRQRY-NH2 [Compound 29]
89.2 nM,437 nM,Y[Aib]EGTFTSDYSI[Aib]LEEEAQ[Aib]AFVRHLINK([γGlu-γGlu-γGlu-γGlu-C18 diacid])[Aib]TRQRY-NH2 [Compound 25]
–,152 nM,Y[Aib]EGTFTSDYSI[Aib]LEKQAQ[Aib]AFVRHLINK([γGlu-γGlu-εLys-γGlu-γGlu-γGlu-γGlu-C20 diacid])[Aib]TRQRY-NH2 [Compound 52]
5.7 nM,–,Y[Aib]EGTFTSDYSI[Aib]LEKQAQ[Aib]AFVRHLINK([εLys-γGlu-γGlu-γGlu-γGlu-γGlu-C20 diacid])[Aib]TRQRY-NH2 [Compound 59]
11.6 nM,77.2 nM,Y[Aib]EGTFTSDYSI[Aib]LEEQAQ[Aib]AFVRHLINK([εLys-γGlu-γGlu-γGlu-γGlu-γGlu-C18 diacid])[Aib]TRQRY-NH2 [Compound 48]
